Assay results: paper PMC10336005, “Architectural basis for cylindrical self-assembly governing Plk4-mediated centriole duplication in human cells” (Communications Biology, 2023)
Blank lines part the entries; values can stand above or below the molecule they belong to.

Tests used:
[1] = molecular target: Cep63 (424–541)•Cep152 (1205–1295) heterotetrameric complex (human) (UniProt O94986); experiment: AUC; sedimentation equilibrium, 4 °C, pH 5.5 (150 mM NaCl, 50 mM citric acid/sodium citrate, 1 mM TCEP, 5% glycerol); 12.6, 25 and 55 µM fitted globally; reversible tetramer–octamer–hexadecamer model (heterotetramer to octamer, octamer to hexadecamer)
[2] = molecular target: His-Cep63 (424–541) (human); experiment: AUC; sedimentation velocity, 50,000 rpm, 4 °C, 150 mM NaCl, 20 mM Tris pH 8.0, 0.5 mM TCEP, 5% glycerol
[3] = molecular target: T1, Cep152 (1205–1295) (human, UniProt O94986-3 1205-1295); experiment: heterotetramer formation (2:2), iSCAMS; printed as <~60 nM
T1 chain: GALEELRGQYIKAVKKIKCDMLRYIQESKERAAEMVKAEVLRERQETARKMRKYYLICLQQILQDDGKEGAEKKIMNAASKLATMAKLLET

[4] = molecular target: the molecule itself; experiment: SEC-MALS; Cep63 (440–490), Wyatt SEC-MALS system
[5] = molecular target: the molecule itself; experiment: SEC; SEC elution of Cep63 (440–490) triple mutants (Supplementary Fig. 3d)

B3: Cep63 (440–490) (domain or fragment, human, UniProt Q96MT8 440-490, looked up)
chain: DMEKRLRAEMQKAEDKAVEHKEILDQLESLKLENRHLSEMVMKLELGLHEA
notes: Cep63, human, residues 440–490; The structure was phased by SAD; also called Cep63 (440–490) WT; Cep63 (440–490) dimer; source: E. coli BL21(DE3) RIL, purified (Ni-NTA, TEV digestion, Sephacryl S-100 HR SEC); selenomethionine-substituted protein from E. coli B834(DE3); not shown: (His)6, N-terminal, cleaved; MBP, N-terminal, cleaved
- stoichiometry N [4]: 2

B4: Cep63 (440–490) (L445A, A456K, L463K) (domain or fragment, human, UniProt Q96MT8 440-490, looked up)
chain: DMEKRARAEMQKAEDKKVEHKEIKDQLESLKLENRHLSEMVMKLELGLHEA
notes: Cep63, human, residues 440–490 with L445A, A456K, L463K; also called AKK; pKM6657; source: E. coli BL21(DE3) RIL, purified (Ni-NTA, TEV digestion, Sephacryl S-100 HR SEC); not shown: (His)6, N-terminal, cleaved; MBP, N-terminal, cleaved
- binding result [5]: binds

Further lines, results first:

- Kd, octamer–octamer interaction (octamer–hexadecamer step) [1]: 2.2 µM
- Kd, tetramer–tetramer interaction (tetramer–octamer step) [1]: 370 µM
- k16 (dissociation constant of the hexadecamer into four tetramers, c4^4/c16) [1]: 3e-13 M^3
- stoichiometry N (heterotetramers in the oligomer) [1]: 4
Molecule: Cep63 (424–541)•Cep152 (1205–1295) heterotetrameric complex (from UniProt O94986-3 1205-1295)

- stoichiometry N (Cep63:Cep152 ratio (2:2)) [2]: 1
B1: Cep152 (1205–1295) (domain or fragment)
chain: GALEELRGQYIKAVKKIKCDMLRYIQESKERAAEMVKAEVLRERQETARKMRKYYLICLQQILQDDGKEGAEKKIMNAASKLATMAKLLET

- Kd [3]: < 0.06 µM
B2: His-Cep63 (424–541) (domain or fragment)
chain: LHQRDITIASTKGSSSDMEKRLRAEMQKAEDKAVEHKEILDQLESLKLENRHLSEMVMKLELGLHECSLPVSPLGSIATRFLEEEELRSHHILERLDAHIEELKRESEKTVRQFTALK
